From publication PMC12022753, “Mechanism of Cas9 inhibition by AcrIIA11”

Columns and labels:
[1] = target: dSaCas9 (nuclease-dead SaCas9);AcrIIA11 D10A;N580A (Staphylococcus aureus;) (UniProt J7RUA5); test: EMSA; conditions: 100 mM KCl, 5 mM MgCl2, 1 mM DTT, 37 C, sgRNA EMSA: 20 mM Tris-HCl pH 8, 5% glycerol, 1 mM NaCl
[2] = target: SaCas9;AcrIIA11 (Staphylococcus aureus;) (UniProt J7RUA5); test: single-molecule DNA curtains; conditions: 100 mM KCl, 5 mM MgCl2, 1 mM DTT, 37 C, sgRNA EMSA: 20 mM Tris-HCl pH 8, 5% glycerol, 1 mM NaCl
SaCas9 [3] = target: T1, SaCas9 (Staphylococcus aureus, UniProt J7RUA5 1-1053); test: single-molecule DNA curtains; conditions: EMSA: 20 mM Tris-HCl pH 8, 5% glycerol, 100 mM KCl, 5 mM MgCl2, 1 mM DTT, 37 C, 1 mM NaCl
T1 sequence: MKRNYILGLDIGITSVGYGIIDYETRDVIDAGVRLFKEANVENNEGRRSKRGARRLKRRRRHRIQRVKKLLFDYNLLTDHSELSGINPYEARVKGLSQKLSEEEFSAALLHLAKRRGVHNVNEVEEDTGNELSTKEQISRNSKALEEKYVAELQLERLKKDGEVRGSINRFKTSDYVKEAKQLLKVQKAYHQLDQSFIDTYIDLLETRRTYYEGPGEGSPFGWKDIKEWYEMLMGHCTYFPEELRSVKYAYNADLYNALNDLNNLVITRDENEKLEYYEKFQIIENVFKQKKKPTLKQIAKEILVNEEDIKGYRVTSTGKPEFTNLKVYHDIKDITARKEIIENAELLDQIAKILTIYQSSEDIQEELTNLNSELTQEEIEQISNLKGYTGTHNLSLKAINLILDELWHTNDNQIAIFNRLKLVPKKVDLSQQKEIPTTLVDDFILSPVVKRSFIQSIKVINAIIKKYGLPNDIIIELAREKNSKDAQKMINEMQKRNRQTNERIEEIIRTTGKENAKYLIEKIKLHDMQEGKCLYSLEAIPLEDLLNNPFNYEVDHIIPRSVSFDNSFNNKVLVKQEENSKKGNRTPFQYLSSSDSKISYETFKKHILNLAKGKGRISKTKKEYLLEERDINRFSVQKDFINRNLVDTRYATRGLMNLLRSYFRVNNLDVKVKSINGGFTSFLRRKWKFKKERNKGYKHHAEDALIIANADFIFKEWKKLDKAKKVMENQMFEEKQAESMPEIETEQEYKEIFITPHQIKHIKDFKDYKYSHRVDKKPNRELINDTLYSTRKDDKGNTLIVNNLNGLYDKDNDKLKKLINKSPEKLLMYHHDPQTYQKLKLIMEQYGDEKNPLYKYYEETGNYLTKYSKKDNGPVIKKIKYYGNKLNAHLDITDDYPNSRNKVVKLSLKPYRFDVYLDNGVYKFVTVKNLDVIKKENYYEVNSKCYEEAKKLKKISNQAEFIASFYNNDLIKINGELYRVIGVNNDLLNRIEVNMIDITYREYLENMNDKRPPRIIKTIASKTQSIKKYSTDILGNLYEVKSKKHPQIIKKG

AcrIIA11-6xHis = test: negative-stain electron microscopy; SaCas9 RNP mixed with ~2-fold excess of AcrIIA11-6xHis, passed over Superose 6 (peak eluted at a higher molecular weight than SaCas9 RNP); 200 mM NaCl, 25 mM HEPES pH 7.5, 5% glycerol, 2 mM DTT; low-resolution 3D reconstruction from 16 761 particles with the SaCas9 RNP crystal structure docked
SaCas9 [4] = target: T1, SaCas9; test: EMSA; RNP preformed with 490 nM SaCas9; EMSA: 20 mM Tris-HCl pH 8, 5% glycerol, 100 mM KCl, 5 mM MgCl2, 1 mM DTT, 37 C; sgRNA EMSA: 20 mM Tris-HCl pH 8, 5% glycerol, 1 mM NaCl, 1 mM DTT, 37 C; curtains (dSaCas9): 40 mM Tris-HCl pH 8, 2 mM MgCl2, 100 mM NaCl, 1 mM DTT, 0.2 mg/ml BSA; conditions: protein: recombinant, tags: N-terminal 3xFLAG, 6xHis-TwinStrep-SUMO removed, label: 5'-32P

Molecule: AAGAACGCCTCGCACACTCTTTTGACTTGATCGGCACGTAAGAGGTTCCAACTTTCACCATAATGAAATAAGATCACTACTTGGGTTATTTTTTGAGTTATCGAGATTTTCAGACTCTGTTATTCGGCGGTT (double strand) [SMART PCR DNA with noncomplementary sgRNA]
- binding signal ([1]; 2 uM AcrIIA11, noncomplementary, EMSA: 20 mM Tris-HCl pH 8, 5% glycerol): 32 % DNA bound

Molecule: lambda DNA with scrambled sgRNA (no target)
- binding signal ([2]; scrambled sgRNA, AcrIIA11, EMSA: 20 mM Tris-HCl pH 8, 5% glycerol): 98 s (lifetime)
- binding signal (s (half-dissociation lifetime)) (SaCas9 [3]; scrambled sgRNA): 61

Molecule: TTTGGGTATTGGGTATTGGGTTTTGGGTTTGGGTTATTTT (double strand) [5x strong PAM DNA (KD201/KD202), nontarget]
- binding signal ([1]; 25 nM dSaCas9 and sgRNA, 5 uM AcrIIA11, EMSA: 20 mM Tris-HCl pH 8, 5% glycerol): 90 % DNA bound

Molecule: 48.5 kb DNA (lambda) with 29.4 kb-target sgRNA
- binding signal (% of molecules at target within 90 s) ([2]; EMSA: 20 mM Tris-HCl pH 8, 5% glycerol): 12
- binding signal (% of molecules at target within 90 s) (SaCas9 [3]; sgRNA EMSA: 20 mM Tris-HCl pH 8, 5% glycerol): 43

B1: SaCas9 RNP from TS-SUMO-SaCas9-sgRNA (enzyme)
chain: T1 sequence
- stoichiometry N (AcrIIA11-6xHis): 1

B2: SaCas9 SMART target sgRNA (structured_RNA)
RNA: UAAUGAAAUAAGAUCACUACGUUUUAGUACUCUGGAAACAGAAUCUACUAAAACAAGGCAAAAUGCCGUGUUUAUCUCGUCAACUUGUUGGCGAGAU
- binding result (SaCas9 [4]): binds
